The assay addresses TolAIII, C-terminal domain of E. coli TolA (residues 302-421) with N-terminal His6 tag (E. coli) (UniProt P19934). In words: SPR.
Sequence of UniProt P19934 (P19934 302-421): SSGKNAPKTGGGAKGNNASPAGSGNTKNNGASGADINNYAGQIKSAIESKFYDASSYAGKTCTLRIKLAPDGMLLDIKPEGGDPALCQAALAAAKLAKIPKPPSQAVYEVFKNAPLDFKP

“TA53-107, residues 53-107 of the translocation domain of colicin A (from UniProt P04480 53-107) (domain or fragment)” had a Kd of 1.34 µM.

As usually defined, the Kd is the concentration at which binding is half-saturated. Lower therefore signals tighter binding.

The values are drawn from paper PMC3365938.
